Results published in US20260242478A1 (published 2026).
Where no end group is shown, it is not given here.

B1: Phage-3144 (peptide)
peptide: HLPRCEPAWMCHGF
modifications: cysteine pairing not given here; also: fused to phage pIII, orientation and linker not given here
notes: Clonal phage of the Peptide-180 library, tested as crude supernatant; not shown: fused to pIII of the bacteriophage
B2: Phage-3151 (peptide)
peptide: FPRLCEPLWMCKGF
modifications: cysteine pairing not given here; also: fused to phage pIII, orientation and linker not given here
notes: as for B1
B3: Phage-3154 (peptide)
peptide: PWIVCKPAWMCTGF
modifications: cysteine pairing not given here; also: fused to phage pIII, orientation and linker not given here
notes: as for B1
B4: Phage-3155 (peptide)
peptide: VSSMCKPAWMCSGF
modifications: cysteine pairing not given here; also: fused to phage pIII, orientation and linker not given here
notes: as for B1
B5: Phage-3150 (peptide)
peptide: DAPLCKPQWMCSGF
modifications: cysteine pairing not given here; also: fused to phage pIII, orientation and linker not given here
notes: as for B1
B6: Phage-3145 (peptide)
peptide: IERSCTPSWMCHGF
modifications: cysteine pairing not given here; also: fused to phage pIII, orientation and linker not given here
notes: as for B1
B7: Phage-3153 (peptide)
peptide: DMSLCKPPWMCFGF
modifications: cysteine pairing not given here; also: fused to phage pIII, orientation and linker not given here
notes: as for B1
B8: Phage-3143 (peptide)
peptide: SVPLCIPEWMCVGF
modifications: cysteine pairing not given here; also: fused to phage pIII, orientation and linker not given here
notes: as for B1
B9: Phage-3148 (peptide)
peptide: AEYMCIPSWMCHGM
modifications: cysteine pairing not given here; also: fused to phage pIII, orientation and linker not given here
notes: as for B1
B10: Phage-3152 (peptide)
peptide: WDQWCVPKWMCQGF
modifications: cysteine pairing not given here; also: fused to phage pIII, orientation and linker not given here
notes: as for B1
B11: Phage-3147 (peptide)
peptide: FEMFCIPAWMCSGL
modifications: cysteine pairing not given here; also: fused to phage pIII, orientation and linker not given here
notes: as for B1
B12: Phage-3149 (peptide)
peptide: LLPACKPTWMCTGL
modifications: cysteine pairing not given here; also: fused to phage pIII, orientation and linker not given here
notes: as for B1
B13: Phage-3146 (peptide)
peptide: GPIMCQPRWMCEGF
modifications: cysteine pairing not given here; also: fused to phage pIII, orientation and linker not given here
notes: as for B1
B14: Phage-3156 (peptide)
peptide: IQVMCRPAWMCSGF
modifications: cysteine pairing not given here; also: fused to phage pIII, orientation and linker not given here
notes: as for B1
B15: Phage-3141 (peptide)
peptide: YERVCEPLWMCTGF
modifications: cysteine pairing not given here; also: fused to phage pIII, orientation and linker not given here
B16: Phage-3136 (peptide)
peptide: VVQICKPSWMCEGF
modifications: cysteine pairing not given here; also: fused to phage pIII, orientation and linker not given here
B17: Phage-3131 (peptide)
peptide: DAVRCVPSWMCEGF
modifications: cysteine pairing not given here; also: fused to phage pIII, orientation and linker not given here
B18: Phage-3137 (peptide)
peptide: IVPKCQPSWMCFGF
modifications: cysteine pairing not given here; also: fused to phage pIII, orientation and linker not given here
B19: Phage-3133 (peptide)
peptide: YERSCVPSWMCEGF
modifications: cysteine pairing not given here; also: fused to phage pIII, orientation and linker not given here
B20: Phage-3138 (peptide)
peptide: DTRICKPEWMCMGM
modifications: cysteine pairing not given here; also: fused to phage pIII, orientation and linker not given here
B21: Phage-3139 (peptide)
peptide: TAPVCVPWWMCEGF
modifications: cysteine pairing not given here; also: fused to phage pIII, orientation and linker not given here
B22: Phage-3130 (peptide)
peptide: SVGYCVPSWMCSGF
modifications: cysteine pairing not given here; also: fused to phage pIII, orientation and linker not given here
B23: Phage-3132 (peptide)
peptide: THIICKPAWMCDAW
modifications: cysteine pairing not given here; also: fused to phage pIII, orientation and linker not given here
B24: Phage-3135 (peptide)
peptide: HQLMCRPAWMCEGF
modifications: cysteine pairing not given here; also: fused to phage pIII, orientation and linker not given here
B25: Phage-3134 (peptide)
peptide: AERLCVPAWMCLNL
modifications: cysteine pairing not given here; also: fused to phage pIII, orientation and linker not given here
B26: Phage-3142 (peptide)
peptide: AGVYCTPMWMCTGF
modifications: cysteine pairing not given here; also: fused to phage pIII, orientation and linker not given here
B27: Phage-3140 (peptide)
peptide: IDTICRPSWMCLGF
modifications: cysteine pairing not given here; also: fused to phage pIII, orientation and linker not given here

The binders below were run against T1, PSMA Fab (assay: clonal phage ELISA on biotinylated PSMA Fab captured on neutravidin plates, anti-M13 HRP detection, blocking buffer alone).
T1 construct: also called Anti-PSMA Fab; 006 PSMA Fab
Procedure: (§1) Clonal phage were harvested as crude supernatants and screened via standard ELISAs. […] Prior to the addition of clonal phage. wells were incubated with blocking buffer and PSMA antigen or blocking buffer alone. Without washing or aspirating, clonal phage supernatants were then added to the wells and incubated for a short time. Wells were then washed followed by detection of bound phage using a horse radish conjugated anti-M13 antibody.

First: B1
Second: B2
The “Phage binding ELISA signal, Anti-PSMA Fab” value of the first is higher: 2.05 for the first, 2.04 for the second.

B3 and B4 are the same in “Phage binding ELISA signal, Anti-PSMA Fab” value: 2.04 for the first, 2.04 for the second.

Going from B5 to B6, the “Phage binding ELISA signal, Anti-PSMA Fab” value rises from 2.04 to 2.05.

First: B7
Second: B8
The “Phage binding ELISA signal, Anti-PSMA Fab” value of the first is lower: 2.04 for the first, 2.05 for the second.

First: B9
Second: B10
The “Phage binding ELISA signal, Anti-PSMA Fab” value of the first is higher: 2.05 for the first, 2.04 for the second.

First: B11
Second: B12
The “Phage binding ELISA signal, Anti-PSMA Fab” value of the first is higher: 2.05 for the first, 2.04 for the second.

First: B13
Second: B14
The “Phage binding ELISA signal, Anti-PSMA Fab” value of the first is higher: 2.05 for the first, 2.04 for the second.

The binders below were run against T2, PSMA Fab (006 PSMA Fab) (assay: clonal phage ELISA; biotinylated PSMA Fab on neutravidin plate pre-incubated with PSMA antigen as competitor; anti-M13 HRP detection;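 also: crude clonal phage supernatants briefly incubated on wells preloaded with PSMA antigen in blocking buffer, or buffer only as control, bound phage detected with HRP-conjugated anti-M13 antibody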).
T2 construct: also called Anti-PSMA Fab; anti-PSMA Fab
Procedure: as §1

First: B15
Second: B16
The “Phage binding ELISA signal, Anti-PSMA Fab in presence of PSMA” value (“Phage binding ELISA signal … of PSMA” for short) of the first is lower: 0.0802 for the first, 0.102 for the second.

First: B17
Second: B18
The “Phage binding ELISA signal … of PSMA” value of the first is higher: 0.1 for the first, 0.0991 for the second.

Compared with B19, B20 is higher in “Phage binding ELISA signal … of PSMA” value: 0.066 for the first, 0.107 for the second.

First: B21
Second: B22
The “Phage binding ELISA signal … of PSMA” value of the first is higher: 0.0757 for the first, 0.075 for the second.

First: B23
Second: B24
The “Phage binding ELISA signal … of PSMA” value of the first is lower: 0.0691 for the first, 0.118 for the second.

Compared with B25, B26 is higher in “Phage binding ELISA signal … of PSMA” value: 0.0543 for the first, 0.0775 for the second.

B27 was tested, and the “Phage binding ELISA signal … of PSMA” value was 0.0788.

These binders were tested against T1, PSMA Fab (assay: clonal phage ELISA on captured PSMA Fab pre-incubated with PSMA antigen as competitor, anti-M13 HRP detection;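 also: crude clonal phage supernatants tested by ELISA, wells first treated with blocking buffer plus PSMA antigen, bound phage read out via HRP-linked anti-M13 antibody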).
Procedure: as §1

Going from B1 to B2, the “phage binding ELISA signal (Anti-PSMA Fab, PSMA antigen present)” value rises from 0.0904 to 0.0987.

First: B3
Second: B4
The “phage binding ELISA signal (Anti-PSMA Fab, PSMA antigen present)” value of the first is higher: 0.118 for the first, 0.0629 for the second.

Compared with B5, B6 is lower in “phage binding ELISA signal (Anti-PSMA Fab, PSMA antigen present)” value: 0.0854 for the first, 0.072 for the second.

Compared with B7, B8 is higher in “phage binding ELISA signal (Anti-PSMA Fab, PSMA antigen present)” value: 0.0792 for the first, 0.106 for the second.

Going from B9 to B10, the “phage binding ELISA signal (Anti-PSMA Fab, PSMA antigen present)” value rises from 0.0861 to 0.197.

Compared with B11, B12 is higher in “phage binding ELISA signal (Anti-PSMA Fab, PSMA antigen present)” value: 0.0821 for the first, 0.135 for the second.

Going from B13 to B14, the “phage binding ELISA signal (Anti-PSMA Fab, PSMA antigen present)” value rises from 0.0807 to 0.0959.

Each binder was assayed against T2, PSMA Fab (006 PSMA Fab) (assay: clonal phage ELISA; biotinylated PSMA Fab on neutravidin plate, blocking buffer alone; anti-M13 HRP detection;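 also: crude clonal phage supernatants added without washing to wells pretreated with blocking buffer with or without PSMA antigen, short incubation, then washed before detecting bound phage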).
Procedure: as §1

First: B15
Second: B16
The “Phage binding ELISA signal, Anti-PSMA Fab” value of the first is lower: 2.05 for the first, 2.06 for the second.

B17 and B18 are the same in “Phage binding ELISA signal, Anti-PSMA Fab” value: 2.06 for the first, 2.06 for the second.

B19 and B20 are the same in “Phage binding ELISA signal, Anti-PSMA Fab” value: 2.06 for the first, 2.06 for the second.

First: B21
Second: B22
The “Phage binding ELISA signal, Anti-PSMA Fab” value of the first is lower: 2.05 for the first, 2.06 for the second.

B23 and B24 are the same in “Phage binding ELISA signal, Anti-PSMA Fab” value: 2.06 for the first, 2.06 for the second.

First: B25
Second: B26
The “Phage binding ELISA signal, Anti-PSMA Fab” value of the first is higher: 2.06 for the first, 2.05 for the second.

B27 was tested, and the “Phage binding ELISA signal, Anti-PSMA Fab” value was 2.05.
